Five molecules from patent publication US20070128187A1 (GENOME THERAPEUTICS, published 2007) can be followed below.

Where only a bound is given, the exact number is not on record here.

In assay [1] the target is T1, Zmax1/LRP5 ligand binding domain bait LBD1 (Leu969-Pro1376) (human, UniProt O75197 969-1376).
T1 construct: also called pDBleuLBD1; not shown: not described
T1 sequence: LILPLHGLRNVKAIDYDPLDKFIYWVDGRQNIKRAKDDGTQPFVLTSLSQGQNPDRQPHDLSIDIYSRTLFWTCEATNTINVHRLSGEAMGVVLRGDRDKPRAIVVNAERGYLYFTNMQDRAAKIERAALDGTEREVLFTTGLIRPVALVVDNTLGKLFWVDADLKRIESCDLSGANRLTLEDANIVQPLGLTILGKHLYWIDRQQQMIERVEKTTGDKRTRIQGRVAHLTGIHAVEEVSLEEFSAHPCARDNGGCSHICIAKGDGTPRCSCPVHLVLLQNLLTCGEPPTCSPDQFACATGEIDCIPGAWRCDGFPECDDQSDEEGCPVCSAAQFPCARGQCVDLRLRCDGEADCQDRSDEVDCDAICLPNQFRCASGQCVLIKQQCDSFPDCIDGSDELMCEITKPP
Kind of assay: Y2H, growth on selective media. An excerpt:
(§1) These clones were transformed into yeast and mated with each of three yeast strains containing pDBleu (Gibco/BRL), pDBleuLBD1, and pDBleuLBD4. Positive interactions were detected by growth of the hybrids on appropriate selective media.

For assay [2], the target named is T2, Zmax1/LRP5 ligand binding domain bait LBD4 (Arg1070-Pro1376) (human, UniProt O75197 1070-1376).
T2 construct: also called pDBleuLBD4; not shown: not described
T2 sequence: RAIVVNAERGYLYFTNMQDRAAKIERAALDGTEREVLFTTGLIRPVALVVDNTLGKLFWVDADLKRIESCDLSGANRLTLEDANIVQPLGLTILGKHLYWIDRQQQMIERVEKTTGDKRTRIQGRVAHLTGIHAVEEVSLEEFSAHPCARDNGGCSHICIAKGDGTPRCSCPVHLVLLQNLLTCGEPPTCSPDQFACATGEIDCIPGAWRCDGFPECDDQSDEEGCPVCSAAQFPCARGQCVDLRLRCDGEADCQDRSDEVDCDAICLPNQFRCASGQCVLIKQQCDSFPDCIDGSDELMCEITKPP
Kind of assay: Y2H, growth on selective media.
Source text: as §1

Another assay addresses T3, LRP5LBD-LexA bait (human, UniProt O75197 969-1376, limits assumed).
T3 construct: Neither the limits of the LBD nor the order of the two parts is stated; also called LRP5 LBD fused with LexA; not shown: LexA
T3 sequence: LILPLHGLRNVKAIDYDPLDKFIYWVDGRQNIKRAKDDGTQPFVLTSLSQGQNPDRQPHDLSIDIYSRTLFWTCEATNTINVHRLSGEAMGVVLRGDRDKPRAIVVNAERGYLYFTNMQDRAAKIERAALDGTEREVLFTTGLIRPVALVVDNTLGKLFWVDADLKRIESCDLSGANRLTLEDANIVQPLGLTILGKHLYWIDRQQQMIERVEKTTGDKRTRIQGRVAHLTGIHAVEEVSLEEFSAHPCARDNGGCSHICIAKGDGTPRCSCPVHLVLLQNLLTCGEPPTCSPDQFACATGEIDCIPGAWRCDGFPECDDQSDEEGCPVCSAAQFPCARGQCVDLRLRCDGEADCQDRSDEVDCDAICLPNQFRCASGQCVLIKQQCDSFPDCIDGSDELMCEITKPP
Kind of assay: Y2H interaction trap, lacZ reporter under a single LexA operator. An excerpt:
For example, the Interaction Trap methodology can be used as follows.

B1: Dkk-1 clone D11 (F3/R2: Val139-Cys245) (ligand, not shown: large carriers)
chain: VSSDQNHFRGEIEETITESFGNDHSTLDGYSRRTTLSSKMYHTKGQEGSVCLRSSDCASGLCCARHFWSKICKPVLKEGQVCTKHRRKGSHGLEIFQRCYCGEGLSC
Consider B1, for which the binding result in assay [1] and in assay [2] was “no binding” throughout.

B2: Dkk-1 clone D8 (F2/R2: Cys97-Cys245) (ligand, not shown: large carriers)
chain: CASPTRGGDAGVQICLACRKRRKRCMRHAMCCPGNYCKNGICVSSDQNHFRGEIEETITESFGNDHSTLDGYSRRTTLSSKMYHTKGQEGSVCLRSSDCASGLCCARHFWSKICKPVLKEGQVCTKHRRKGSHGLEIFQRCYCGEGLSC
Take B2: the binding result in assay [1] and in assay [2] was “binds” throughout.

B3: Dkk-1 clone isolated from the HOB03C5 osteoblast library (Gal4 activation domain fusion prey) (ligand, S. cerevisiae)
chain: ANFNQSGNIADSSLSFTFTNSSNGPNLITTQTNSQALSQPIASSNVHDNFMNNEITASKIDDGNNSKPLSPGWTDQTAYNAFGITTGMFNTTTMDDVYNYLFDDEDTPPNPKKETLNSVLNSNAIKNLPPPLGGAAGHPGSAVSAAPGILYPGGNKYQTIDNYQPYPCAEDEECGTDEYCASPTRGGDAGVQICLACRKRRKRCMRHAMCCPGNYCKNGICVSSDQNHFRGEIEETITESFGNDHSTLDGYSRRTTLSSKMYHTKGQEGSVCLRSSDCASGLCCARHFWSKICKPVLKEGQVCTKHRRKGSHGLEIFQRCYCGEGLSCRIQKDHHQASNSSRLHTCQRH
notes: also called Gal4AD-Dkk prey
Turning to B3, the “fold activation of lacZ reporter over the background” value with LRP5LBD-LexA bait is greater than 20 fold.

B4: Dkk-1 clone D3 (F1/R1: Asn34-Lys182) (ligand, not shown: large carriers)
chain: NSVLNSNAIKNLPPPLGGAAGHPGSAVSAAPGILYPGGNKYQTIDNYQPYPCAEDEECGTDEYCASPTRGGDAGVQICLACRKRRKRCMRHAMCCPGNYCKNGICVSSDQNHFRGEIEETITESFGNDHSTLDGYSRRTTLSSKMYHTK
For the molecule B4, the binding result in assay [1] and in assay [2] was “no binding” throughout.

B5: Dkk-1 clone D4 (F1/R2: Asn34-Cys245) (ligand, not shown: large carriers)
chain: NSVLNSNAIKNLPPPLGGAAGHPGSAVSAAPGILYPGGNKYQTIDNYQPYPCAEDEECGTDEYCASPTRGGDAGVQICLACRKRRKRCMRHAMCCPGNYCKNGICVSSDQNHFRGEIEETITESFGNDHSTLDGYSRRTTLSSKMYHTKGQEGSVCLRSSDCASGLCCARHFWSKICKPVLKEGQVCTKHRRKGSHGLEIFQRCYCGEGLSC
As to B5, the binding result in assay [1] and in assay [2] was “binds” each time.
